According to US20120178139A1:

Target: mouse glycophorin-A on mouse erythrocytes (mouse) (UniProt P14220)
Test: in vivo, flow cytometry of circulating erythrocytes after intravenous administration

In the case of “8-arm PEG-ERY1 (8-arm PEG-ERY1-ALEXAFLUOR647)”, the cell-surface half-life is reported as 2.2 h.
